Target: CD33 (UniProt P20138 18-364, limits assumed)
Test: cell-based or functional assay

Chain of CD33 (P20138 18-364 limits assumed): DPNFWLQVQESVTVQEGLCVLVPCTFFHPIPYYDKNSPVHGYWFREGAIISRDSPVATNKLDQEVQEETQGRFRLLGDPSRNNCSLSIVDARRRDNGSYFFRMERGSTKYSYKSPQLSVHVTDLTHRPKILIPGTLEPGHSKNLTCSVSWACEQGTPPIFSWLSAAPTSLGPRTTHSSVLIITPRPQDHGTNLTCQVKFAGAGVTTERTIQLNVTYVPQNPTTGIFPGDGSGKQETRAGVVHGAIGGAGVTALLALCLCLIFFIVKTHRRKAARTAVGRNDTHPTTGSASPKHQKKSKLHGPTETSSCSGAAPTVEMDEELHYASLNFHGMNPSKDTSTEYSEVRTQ

CD4+及びCD8+T細胞増殖: > 2 fold
B1: AMV564 (bispecific antibody)
chain: DIQMTQSPSSLSASVGDRVTITCRSSTGAVTTSNYANWVQQKPGKAPKALIGGTNKRAPGVPSRFSGSLIGDKATLTISSLQPEDFATYYCALWYSNLWVFGQGTKVEIKGGSGGSQVQLVQSGAEVKKPGASVKVSCKASGYTFTSYDINWVRQAPGQGLEWMGWMNPNSGNTGFAQKFQGRVTMTRDTSTSTVYMELSSLRSEDTAVYYCARDRANTDYSLGMDVWGQGTLVTVSSGGSGQSVLTQPPSASGTPGQRVTISCSGSRSNIGSNTVNWYQQLPGTAPKLLIYGNNQRPSGVPDRFSGSKSGTSASLAISGLQSEDEADYYCATWDDSLIGWVFGGGTKLTVLGGSGGSEVQLVESGGGLVQPGGSLRLSCAASGFTFSTYAMNWVRQAPGKGLEWVGRIRSKYNNYATYYADSVKDRFTISRDDSKNSLYLQMNSLKTEDTAVYYCARHGNFGNSYVSYFAYWGQGTLVTVSS

Source: patent publication JP2024513915A (dated 2024)
